From IntAct's records for PubMed 38225382 come the findings set out here.

Experiment [1] concerns the target pex3_human PEX3 (UniProt P56589).
The target of experiment [2] is tri37_human TRIM37 (UniProt O94972).
tri37_human TRIM37, sequence (O94972 whole entry): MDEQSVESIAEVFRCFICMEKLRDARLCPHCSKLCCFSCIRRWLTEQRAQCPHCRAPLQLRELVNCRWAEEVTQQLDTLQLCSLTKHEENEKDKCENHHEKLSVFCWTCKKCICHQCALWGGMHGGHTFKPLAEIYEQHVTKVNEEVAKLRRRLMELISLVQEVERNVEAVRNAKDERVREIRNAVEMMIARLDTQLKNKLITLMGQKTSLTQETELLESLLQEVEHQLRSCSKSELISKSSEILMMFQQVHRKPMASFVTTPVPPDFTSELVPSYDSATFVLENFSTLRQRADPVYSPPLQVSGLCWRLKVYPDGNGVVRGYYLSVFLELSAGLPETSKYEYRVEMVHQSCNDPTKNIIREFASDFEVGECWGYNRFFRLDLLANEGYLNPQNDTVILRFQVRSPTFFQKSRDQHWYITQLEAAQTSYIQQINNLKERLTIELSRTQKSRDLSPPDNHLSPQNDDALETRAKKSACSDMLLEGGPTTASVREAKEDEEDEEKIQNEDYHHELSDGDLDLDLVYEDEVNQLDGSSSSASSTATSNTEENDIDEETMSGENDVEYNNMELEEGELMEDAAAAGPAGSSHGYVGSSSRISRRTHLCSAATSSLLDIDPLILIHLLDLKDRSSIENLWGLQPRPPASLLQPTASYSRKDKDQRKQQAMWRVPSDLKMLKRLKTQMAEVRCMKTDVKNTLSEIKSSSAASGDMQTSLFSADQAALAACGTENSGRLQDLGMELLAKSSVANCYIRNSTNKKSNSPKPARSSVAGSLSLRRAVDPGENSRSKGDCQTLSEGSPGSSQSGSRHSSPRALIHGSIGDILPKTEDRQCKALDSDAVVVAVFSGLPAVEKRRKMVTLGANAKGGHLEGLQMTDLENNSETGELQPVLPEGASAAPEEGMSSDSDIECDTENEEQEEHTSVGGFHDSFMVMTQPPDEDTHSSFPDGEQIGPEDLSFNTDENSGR

pex3_human PEX3, sequence (P56589 whole entry): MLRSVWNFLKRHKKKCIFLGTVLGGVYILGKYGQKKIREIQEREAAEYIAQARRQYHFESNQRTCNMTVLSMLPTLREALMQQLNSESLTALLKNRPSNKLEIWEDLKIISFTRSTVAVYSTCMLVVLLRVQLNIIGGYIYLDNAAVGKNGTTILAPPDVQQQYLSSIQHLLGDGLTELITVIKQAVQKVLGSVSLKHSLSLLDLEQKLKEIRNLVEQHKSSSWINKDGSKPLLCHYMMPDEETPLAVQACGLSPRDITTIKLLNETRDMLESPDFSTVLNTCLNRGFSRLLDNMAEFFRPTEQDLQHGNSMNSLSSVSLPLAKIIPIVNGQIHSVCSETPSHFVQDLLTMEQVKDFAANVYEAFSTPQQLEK
Peroxisomal membrane protein PEX16 (Homo sapiens), Q9Y5Y5 W189G, sequence (Q9Y5Y5 whole entry W189G): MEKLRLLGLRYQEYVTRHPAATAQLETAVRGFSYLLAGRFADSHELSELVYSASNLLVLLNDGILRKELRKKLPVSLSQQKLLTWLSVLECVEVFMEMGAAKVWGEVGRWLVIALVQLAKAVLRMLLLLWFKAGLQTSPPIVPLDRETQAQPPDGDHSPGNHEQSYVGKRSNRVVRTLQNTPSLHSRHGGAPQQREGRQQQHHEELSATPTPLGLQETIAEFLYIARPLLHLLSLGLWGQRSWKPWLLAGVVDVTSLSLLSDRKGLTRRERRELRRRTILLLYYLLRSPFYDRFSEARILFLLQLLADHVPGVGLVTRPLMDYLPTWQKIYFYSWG
Peroxisomal membrane protein PEX16 (Homo sapiens), Q9Y5Y5 K169A, sequence (Q9Y5Y5 whole entry K169A): as the sequence (Q9Y5Y5 whole entry W189G) above, with K169A, G189W counted along it

As to “Peroxisomal membrane protein PEX16 (Homo sapiens), Q9Y5Y5 K169A”, the “effect of a mutation on the interaction” value in experiment [1] was “with no effect”.
As for “Bifunctional polynucleotide phosphatase/kinase (Homo sapiens), Q96T60 S114D”, the “effect of a mutation on the interaction” value in experiment [2] is “with no effect”.
On the same count and under the same terms, the entry for “Bifunctional polynucleotide phosphatase/kinase (Homo sapiens), Q96T60 P112R” is “with no effect”.
Turning to “Peroxisomal membrane protein PEX16 (Homo sapiens), Q9Y5Y5 W189G”, in experiment [1], the “effect of a mutation on the interaction” value is on record as “with no effect”.
